Some results are limits rather than exact numbers.

One data set is described as follows: Substrate specificity. The conditions noted are these: 333 mM. Format: biochemical. An excerpt: As these substrates, maltose, D-galactose, D-fructose, sorbitol, lactose, sucrose, D-xylose, D-mannose and trehalose were used. When the activity to D-glucose was defined as 100%, the relative activity to each substrate was found. These relative activities are described collectively as the substrate specificity in Table 2.

Data set [1] can be described thus: Temperature characteristics. Format: biochemical. How it is done:
The relative activity at each temperature was calculated when the activities at 30 and 45° C. were each defined as 100%. In this case, each sample was measured twice in the same condition. An average of the measured relative activities is collectively described in Table 3.

[2] abbreviates: substrate D-fructose, D-glucose = 100%.
The mark [3] stands for this setting: substrate D-galactose, D-glucose = 100%.
[4] abbreviates: substrate D-glucose (defined as 100%).
The mark [5] stands for this setting: substrate D-mannose, D-glucose = 100%.
Where [6] appears, read: substrate D-xylose, D-glucose = 100%.
Setting [7] is: substrate lactose, D-glucose = 100%.
[8] abbreviates: substrate maltose, D-glucose = 100%.
[9] abbreviates: substrate sorbitol, D-glucose = 100%.
[10] abbreviates: substrate sucrose, D-glucose = 100%.
Setting [11] is: substrate trehalose, D-glucose = 100%.

B1: BotGLD: purified enzyme of GLD derived from Botrytis tulipae, produced in A. oryzae NS4 carrying the BotGLD-Atsig modified gene (protein, listed as Botrytis tulipae)
chain: MYRLLSTFALASLAAASTDSTLTYDYIVIGAGTSGLVIANRLSELNVTVAVIEAGDSGYNNPNVTNPSGYGLSFGTDIDWAYQSTNQKYAGNTSQVLRAGKIIGGTSTINGMAYTRAEDVQIDAWAAIGNDGWNWANLFPYYKKSQTLEIPTTAQVEAGAAYDASANGFDGPLKVGWLNSLEDTSNFHTTLNDTFAGLGVPSNDDVNTGRMVGYSRYPATYDRTLNVRHDAGRAYYYPIANRTNLHLYPNTMAQRLTWTSDANTPTANGVEVLSNNSSIPYTIHANSEVILSAGALASPLLLELSGIGNPSILSKHNISVVVDLPTVGENLQDQTNTGLAYNSSGNTSFSGAGTLVAYPSAAQLFGSEVQKISAHVLQSLPSYAAQVSAASGNITKAADLLKFFKIQHDLIFSTTHPVPMAEILISPSATAFSSEYWALLPFARGSIHITSSVAGTPAAINPNYFMFDWDVTSQIATAKFIRSIYAASPLSSFVGSETKPGLNKVSANATEAEWFDWVKTAYRSNFHPVSTAAMMPREIGGVVDSRLKVYGTANVRVVDASILPMQVSGHLVSTLYAVAERAADLIKEDI
modifications: CDS (1)..(1773); sig_peptide (1)..(57)
notes: purified enzyme of GLD derived from Botrytis tulipae, produced in A. oryzae NS4 carrying the BotGLD-Atsig modified gene
B1: the Relative activity in the data set “Substrate specificity” (setting [2]) is less than 0.1%; in the data set “Substrate specificity” (setting [3]) it was 0.76%; in “Substrate specificity” (setting [4]) it was 100%; in “Substrate specificity” (setting [5]) it was 8.2%; in “Substrate specificity” (setting [6]) it was 20%; in the data set “Substrate specificity” (setting [7]) it was less than 0.1%. Besides, the Relative activity is 1.5% in the data set “Substrate specificity” (setting [8]), less than 0.1% in the data set “Substrate specificity” (setting [9]), less than 0.1% in “Substrate specificity” (setting [10]) and 10% in the data set “Substrate specificity” (setting [11]).

B2: CiGLD: purified enzyme of GLD derived from the genus Ciborinia, produced in A. oryzae NS4 carrying the CiGLD-Atsig modified gene (protein, listed as Ciborinia camelliae)
chain: MHRFLPAFVLASLAAASQDVALTYDYVIVGAGTSGLVTAHRLSELADVTVAVIEAGESNYNNANVTNPAGYGLAFGTQIDWQYQTTVQEYGGDVTKVIRAGKSIGGTSTINGMAYTRAEDVQVDAWEALGNEGWNWANMLPYYKKSQTLQVPTEAQAALGAHYDPASNGYEGPLKVGWVNAMATDDFHTILNETYAALDVPANNDVNTGKMIGYTRYPATYDRTLNMRCDAGRAYYYPIQNRTNLHLYPNTMAQRLTWKSGASTPTAEGVEVLADGETTPYTIHASSEVIISAGALGSPLVLEHSGIGNPAILEKYNISVVVDLPTVGENLQDQTNTALGFDTSSDNVTYSAVSTYLGYPSAAQMFGSDFKTVAAEILAALPSYADKVAIASGNVTKAADLLKFFKIQYELIFSATSPVPVAELLVTPVGTTYSAEFWSLLPFSRGNIHISSATPGVAATINPNYFMLDYDMISQVRSAKYIREIFATTPLSPLVGSETTPGLDSIASAATEAEWAAWVKTAYRSNFHPVATAAMMPREIGGVVDSRLKVYGTTNVRVVDASILPMQVCGHLTSTLYAMSERAADLIKEDM
modifications: CDS (1)..(1776); sig_peptide (1)..(57)
notes: purified enzyme of GLD derived from the genus Ciborinia, produced in A. oryzae NS4 carrying the CiGLD-Atsig modified gene
For B2, the Relative activity came out at 0.49% in “Substrate specificity” (setting [2]); 10% in the data set “Substrate specificity” (setting [3]); 100% in the data set “Substrate specificity” (setting [4]); 23% in the data set “Substrate specificity” (setting [5]); 25% in “Substrate specificity” (setting [6]); 0.21% in “Substrate specificity” (setting [7]). The Relative activity in the data set “Substrate specificity” (setting [8]) turned out to be 6.4%; in “Substrate specificity” (setting [9]), 0.38%; in the data set “Substrate specificity” (setting [10]), 0.40%; in “Substrate specificity” (setting [11]), 20%.

B3: DuGLD: purified enzyme of flavin-binding GLD derived from the genus Dumontinia (Dumontinia tuberosa NBRC30254) (protein, listed as Dumontinia tuberosa)
chain: MNHLLPAFALASLAVASPDLSLTYDYVIVGAGTSGLVIANRLSELNVTVAVIEAGDSGYNNVNVTNPAGYGLAFGTDIDWAYQSTNQKYAGNATQTLRAGKVIGGTSTINGMAYTRAEDVQIDAWAALGNDGWNWENLFPYYKKSQTLQAPTAAQAEAGATYDPSANGFDGPLKVGWLKSLANDDFHIILNDTYASLGIFANEDVNTGRMVGYNRYPVTYDETLNVRHDAGRAYYYPIANRTNLHLYPNTMAQRLTWKSGADVPTANGVEVLTNNSSIPYTISANSEVILSAGALASPLLLELSGIGNPSLLNKYNIPVVVDLPTVGENLQDQTNNGLAYTVSKDASFSGVGTLVTYPSAAQVFGSEIQNISAHVLDSLPSYAAQVSAASGNVTKAADLLEFFKIQHDLIFSTTHPVPMAEILVIPSATGFKSEYWALLPFARGNIHITSSIPGTPAAINPNYYMLDWDITSQITTAKFIRSVYATSPLSTLVGSETKPGLETLSANATEAEWSEWIKAGYRPNFHPVSTAAMMPREVGGVVDSRLKVYGTSNVRVVDASVLPMQVSGHLVSTLYAVAERAADLIKEDI
modifications: CDS (1)..(1770); sig_peptide (1)..(57)
For B3, the Relative activity in “Substrate specificity” (setting [2]) is less than 0.1%; in “Substrate specificity” (setting [3]), 0.28%; in “Substrate specificity” (setting [4]), 100%; in “Substrate specificity” (setting [5]), 1.7%; in the data set “Substrate specificity” (setting [6]), 10%; in “Substrate specificity” (setting [7]) it was less than 0.1%. Further, the Relative activity in the data set “Substrate specificity” (setting [8]) was 0.54%; in the data set “Substrate specificity” (setting [9]) it was less than 0.1%; in “Substrate specificity” (setting [10]), less than 0.1%; in the data set “Substrate specificity” (setting [11]) it was 1.0%; in data set [1] (10° C., substrate 10 mM, 100% at 30° C.), 60.6%; in data set [1] (10° C., substrate 10 mM, 100% at 45° C.), 60.1%. In addition, the Relative activity in data set [1] (10° C., substrate 50 mM, 100% at 30° C.) is 56.0%; in data set [1] (10° C., substrate 50 mM, 100% at 45° C.), 50.5%; in data set [1] (20° C., substrate 10 mM, 100% at 30° C.), 81.5%; in data set [1] (20° C., substrate 10 mM, 100% at 45° C.) it was 80.7%; in data set [1] (20° C., substrate 50 mM, 100% at 30° C.), 77.9%; in data set [1] (20° C., substrate 50 mM, 100% at 45° C.), 70.3%. Also, the Relative activity worked out at 100% in data set [1] (30° C., substrate 10 mM, 100% at 30° C.); 99.1% in data set [1] (30° C., substrate 10 mM, 100% at 45° C.); 100% in data set [1] (30° C., substrate 50 mM, 100% at 30° C.); 90.2% in data set [1] (30° C., substrate 50 mM, 100% at 45° C.); 108% in data set [1] (40° C., substrate 10 mM, 100% at 30° C.); 107% in data set [1] (40° C., substrate 10 mM, 100% at 45° C.). Also, the Relative activity in data set [1] (40° C., substrate 50 mM, 100% at 30° C.) was 109%; in data set [1] (40° C., substrate 50 mM, 100% at 45° C.), 98.6%; in data set [1] (45° C., substrate 10 mM, 100% at 30° C.) it was 101%; in data set [1] (45° C., substrate 10 mM, 100% at 45° C.) it was 100%; in data set [1] (45° C., substrate 50 mM, 100% at 30° C.), 111%; in data set [1] (45° C., substrate 50 mM, 100% at 45° C.) it was 100%. Moreover, the Relative activity in data set [1] (50° C., substrate 10 mM, 100% at 30° C.) worked out at 87.5%; in data set [1] (50° C., substrate 10 mM, 100% at 45° C.), 86.7%; in data set [1] (50° C., substrate 50 mM, 100% at 30° C.) it was 105%; in data set [1] (50° C., substrate 50 mM, 100% at 45° C.), 94.4%.

(Values after patent US8945359B2, “Flavin-binding glucose dehydrogenase” (Ikeda Food Research Co., Ltd., priority 2011, dated 2015).)
